US20210395392A1 (Bristol-Myers Squibb, published 2021)
One block for each binder: values may come before it.

Tests used:
[1] = target: T1, Recombinant soluble extracellular domain of mouse MerTK (mouse, UniProt Q60805 19-497); assay: SPR, soluble MerTK ECD; format for mouse mAbs not detailed
T1 construct: SPR analyte; also called mMerTK
T1 sequence: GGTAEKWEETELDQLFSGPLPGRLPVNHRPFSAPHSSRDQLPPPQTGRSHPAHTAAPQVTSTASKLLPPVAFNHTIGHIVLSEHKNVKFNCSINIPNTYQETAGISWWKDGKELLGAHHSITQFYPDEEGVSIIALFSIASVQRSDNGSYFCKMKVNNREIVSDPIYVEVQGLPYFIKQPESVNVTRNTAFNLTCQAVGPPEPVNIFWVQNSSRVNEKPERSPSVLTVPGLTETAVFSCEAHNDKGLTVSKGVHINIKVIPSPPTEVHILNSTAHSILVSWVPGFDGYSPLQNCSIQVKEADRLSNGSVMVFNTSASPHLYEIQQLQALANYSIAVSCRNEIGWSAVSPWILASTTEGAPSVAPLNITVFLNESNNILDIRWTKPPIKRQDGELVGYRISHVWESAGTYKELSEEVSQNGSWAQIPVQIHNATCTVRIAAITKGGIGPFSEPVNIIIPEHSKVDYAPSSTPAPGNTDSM

[2] = target: T2, Recombinant soluble extracellular domain of human MerTK (human, UniProt Q12866 21-505); assay: as above
T2 construct: SPR analyte; also called hMerTK
T2 sequence: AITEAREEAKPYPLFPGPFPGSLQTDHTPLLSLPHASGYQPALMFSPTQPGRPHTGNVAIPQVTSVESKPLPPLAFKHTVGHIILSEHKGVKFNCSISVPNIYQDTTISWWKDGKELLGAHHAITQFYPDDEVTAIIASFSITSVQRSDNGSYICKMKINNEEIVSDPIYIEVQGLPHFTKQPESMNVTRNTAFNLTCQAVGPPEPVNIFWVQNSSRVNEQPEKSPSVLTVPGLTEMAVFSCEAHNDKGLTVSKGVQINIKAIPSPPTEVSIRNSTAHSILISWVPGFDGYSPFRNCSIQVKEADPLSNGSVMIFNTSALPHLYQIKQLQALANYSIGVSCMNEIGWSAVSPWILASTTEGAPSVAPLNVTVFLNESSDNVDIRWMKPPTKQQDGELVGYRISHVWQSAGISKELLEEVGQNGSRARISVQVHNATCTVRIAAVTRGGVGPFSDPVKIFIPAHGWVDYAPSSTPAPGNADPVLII

[3] = target: T3, Recombinant soluble extracellular domain of cynomolgus monkey MerTK (cynomolgus monkey, UniProt Q12866 21-505 (human entry)); assay: as above
T3 construct: SPR analyte; also called cMerTK; Cynomolgus MerTK
T3 chain: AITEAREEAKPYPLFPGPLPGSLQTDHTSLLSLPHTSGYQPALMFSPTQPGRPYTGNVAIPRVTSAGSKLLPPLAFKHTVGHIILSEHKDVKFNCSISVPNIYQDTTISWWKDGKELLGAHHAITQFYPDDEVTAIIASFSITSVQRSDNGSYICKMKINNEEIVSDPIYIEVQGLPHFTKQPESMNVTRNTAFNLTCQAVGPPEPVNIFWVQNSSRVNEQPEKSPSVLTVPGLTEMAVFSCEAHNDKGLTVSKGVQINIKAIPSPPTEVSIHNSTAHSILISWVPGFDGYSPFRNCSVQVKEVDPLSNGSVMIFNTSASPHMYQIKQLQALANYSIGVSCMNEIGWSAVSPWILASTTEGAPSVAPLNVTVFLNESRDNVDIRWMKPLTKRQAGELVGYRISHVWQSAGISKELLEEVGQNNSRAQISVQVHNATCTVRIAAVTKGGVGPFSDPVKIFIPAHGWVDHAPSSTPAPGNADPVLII

[4] = target: T4, Mouse MerTK on mMerTK-expressing cells (mouse, UniProt Q60805 19-994); assay: cell-based or functional assay
T4 sequence: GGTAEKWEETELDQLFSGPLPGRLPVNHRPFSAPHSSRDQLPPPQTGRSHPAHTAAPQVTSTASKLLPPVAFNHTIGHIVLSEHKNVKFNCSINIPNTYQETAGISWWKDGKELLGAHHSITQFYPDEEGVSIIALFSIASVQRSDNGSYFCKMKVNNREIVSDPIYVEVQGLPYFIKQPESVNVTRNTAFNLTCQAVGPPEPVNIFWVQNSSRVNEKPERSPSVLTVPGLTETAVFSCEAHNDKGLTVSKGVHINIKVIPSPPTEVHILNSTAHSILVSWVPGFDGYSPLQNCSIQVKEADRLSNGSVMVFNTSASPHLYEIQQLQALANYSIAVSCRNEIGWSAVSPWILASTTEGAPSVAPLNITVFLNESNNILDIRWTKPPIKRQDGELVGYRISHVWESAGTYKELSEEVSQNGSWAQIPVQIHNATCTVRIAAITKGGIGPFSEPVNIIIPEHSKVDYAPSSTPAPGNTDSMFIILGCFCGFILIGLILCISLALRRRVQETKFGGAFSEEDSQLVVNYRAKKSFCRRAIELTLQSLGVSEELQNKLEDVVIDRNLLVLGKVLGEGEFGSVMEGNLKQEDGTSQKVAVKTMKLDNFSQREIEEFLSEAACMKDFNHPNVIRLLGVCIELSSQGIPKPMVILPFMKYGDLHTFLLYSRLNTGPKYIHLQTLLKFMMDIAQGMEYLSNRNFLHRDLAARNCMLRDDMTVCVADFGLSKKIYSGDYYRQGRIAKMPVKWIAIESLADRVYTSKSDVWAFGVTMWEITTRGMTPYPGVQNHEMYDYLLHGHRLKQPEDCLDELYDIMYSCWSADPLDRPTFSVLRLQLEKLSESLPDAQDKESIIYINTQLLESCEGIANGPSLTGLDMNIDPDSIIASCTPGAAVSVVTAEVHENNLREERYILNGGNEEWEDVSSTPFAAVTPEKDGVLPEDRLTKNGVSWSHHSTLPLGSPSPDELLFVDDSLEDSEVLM

[5] = target: T5, Human MerTK on hMerTK-expressing cells (human, UniProt Q12866 21-999); assay: cell-based or functional assay
T5 sequence: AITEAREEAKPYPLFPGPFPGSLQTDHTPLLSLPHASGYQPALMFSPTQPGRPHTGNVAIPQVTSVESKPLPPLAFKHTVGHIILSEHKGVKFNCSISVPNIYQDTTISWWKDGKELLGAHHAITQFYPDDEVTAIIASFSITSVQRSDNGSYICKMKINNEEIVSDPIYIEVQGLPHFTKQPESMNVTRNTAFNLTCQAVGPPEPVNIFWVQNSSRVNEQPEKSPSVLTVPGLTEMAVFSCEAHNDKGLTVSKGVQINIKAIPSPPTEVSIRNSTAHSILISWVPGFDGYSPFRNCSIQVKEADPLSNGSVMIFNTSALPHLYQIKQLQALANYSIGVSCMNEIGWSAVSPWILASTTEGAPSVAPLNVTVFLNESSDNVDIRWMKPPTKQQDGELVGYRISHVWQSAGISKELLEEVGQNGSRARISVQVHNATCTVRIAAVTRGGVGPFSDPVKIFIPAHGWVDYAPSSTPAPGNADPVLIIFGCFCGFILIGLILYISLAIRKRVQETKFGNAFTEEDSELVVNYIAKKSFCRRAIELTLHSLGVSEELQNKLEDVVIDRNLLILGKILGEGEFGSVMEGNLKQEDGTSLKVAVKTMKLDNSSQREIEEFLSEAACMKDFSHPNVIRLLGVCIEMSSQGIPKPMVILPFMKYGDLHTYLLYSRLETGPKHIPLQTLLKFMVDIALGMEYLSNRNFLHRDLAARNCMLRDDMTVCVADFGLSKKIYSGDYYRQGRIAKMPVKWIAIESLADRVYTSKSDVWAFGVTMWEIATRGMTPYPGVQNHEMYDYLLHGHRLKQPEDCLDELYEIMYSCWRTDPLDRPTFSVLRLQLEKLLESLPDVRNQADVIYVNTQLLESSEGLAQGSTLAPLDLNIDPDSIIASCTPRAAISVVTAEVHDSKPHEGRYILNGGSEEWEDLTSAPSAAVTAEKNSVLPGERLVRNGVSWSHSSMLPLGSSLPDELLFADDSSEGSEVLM

[6] = target: T5, Human MerTK on hMerTK-expressing cells; assay: binding to hMerTK-expressing cells

Kd [1]: 3.2 nM
koff [1]: 0.000403 s⁻¹
kon [1]: 126000 M⁻¹ s⁻¹
t1/2 [1]: 28.7 min
koff [2]: 0.00064 s⁻¹
t1/2 [2]: 18.2 min
Kd [3]: 12 nM
koff [3]: 0.00064 s⁻¹
kon [3]: 53300 M⁻¹ s⁻¹
t1/2 [3]: 18 min
Signaling Assay, mMerTK with Gas6, pSTAT1 IC50 (nM) [4]: 2.07 nM
Inhibition of Efferocytosis IC50 [5]: 0.528 nM
Signaling Assay, hMerTK with Gas6, pSTAT1 IC50 (nM) [5]: 1.44 nM
Signaling Assay, hMerTK without Gas6, pSTAT1 IC50 (nM) [5]: > 100 nM
B1: MoMAb 2D9 (antibody, V domains shown)
VH: QVQLKESGPGLVAPSQSLSITCTVSGISLSSFAISWVRQPPGKGLEWLGVIWTGGGTDYNSALKSRLTISKDTSKNQVFLKMNSLQTDDTARYYCASHWYLDVWGTGTTVTVSS
VL: QAVVTQESALTTSPGETVTLTCRSSTGAVSTSNYANWVQEKPDHLFTGLIGGANSRAPGIPARFSGSLIGDKAALTITGAQTEDEAIYFCALWFSNHWVFGGGTKLTVL
notes: Mouse mAb; Bin 2

binding result [6]: no binding
Kd [1]: 35.1 nM
koff [1]: 0.00256 s⁻¹
kon [1]: 72700 M⁻¹ s⁻¹
t1/2 [1]: 4.5 min
Kd [2]: > 250 nM
Kd [3]: > 100 nM
Signaling Assay, mMerTK with Gas6, pSTAT1 IC50 (nM) [4]: 0.9 nM
Signaling Assay, hMerTK with Gas6, pSTAT1 IC50 (nM) [5]: > 100 nM
Signaling Assay, hMerTK without Gas6, pSTAT1 IC50 (nM) [5]: > 100 nM
B2: MoMAb 16B9 (antibody, V domains shown)
VH: EVQLQQSRPDLVKPGASVKMSCKASGYTFIDYNMHWVKQRHGKSLEWIGYIHPNNGGTSYNQKFKDKATLTMNKSSSTAYMELRSLTSEDSAVYYCSRSGIYYDYDSFFDYWGQGTTLTVSS
VL: DIQMTQSPASLYVSVGETVTITCRASENIYSHLAWYQQKLGKSPHLLVYAATNLADGVPSRFSGSGSGTQYSLKINSLQSEDFGSYYCQHFWGSPWTFGGGTKLEIK
notes: Mouse mAb

Kd [1]: 9.7 nM
koff [1]: 0.00133 s⁻¹
kon [1]: 137000 M⁻¹ s⁻¹
t1/2 [1]: 8.7 min
koff [2]: 0.00114 s⁻¹
t1/2 [2]: 10.1 min
Kd [3]: 40 nM
koff [3]: 0.00112 s⁻¹
kon [3]: 28400 M⁻¹ s⁻¹
t1/2 [3]: 10.3 min
Signaling Assay, mMerTK with Gas6, pSTAT1 IC50 (nM) [4]: 1.86 nM
Inhibition of Efferocytosis IC50 [5]: 0.632 nM
Signaling Assay, hMerTK with Gas6, pSTAT1 IC50 (nM) [5]: 1.52 nM
Signaling Assay, hMerTK without Gas6, pSTAT1 IC50 (nM) [5]: > 100 nM
B3: MoMAb 4E9 (antibody, V domains shown)
VH: QIQLVQSGPELKKPGETVKISCKASGNTFTTYGMSWVKQAPGKNLKWMGWINNYSGVSTYADDFKGRFAFSLETSATTAYLQINNLTNEDSATYFCARDYYGSGGWVFDYWGQGTTLTVSS
VL: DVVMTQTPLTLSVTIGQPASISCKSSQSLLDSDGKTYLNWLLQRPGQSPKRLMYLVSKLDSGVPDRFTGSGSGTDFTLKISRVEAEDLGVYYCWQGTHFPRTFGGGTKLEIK
notes: Mouse mAb; Bin 2
